# ± gives the standard deviation of the averaged measurements.
# Test system: ATP
# Assay: switch fluorescence ratio, 500 uM ATP over buffer (Cy3 cluster intensity, sum of 5 cycles each) (fold (ratio)); higher = stronger signal-on switching upon ATP binding; sequences stand for … in TCGTCGGCAGCGTCAGATGTGTATAAGAGACAGTTTTTTTTTTTTTTTTTTTTTTTTT…TC
# Settings: aptamer strand: ATP DNA aptamer (quencher-CACCTGGGGGAGTATTGCGGAGGAAGG + anchor), 100 nM annealed; ATP concentration: 500 uM
# Summary of the method: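 Between each of five buffer/ATP cycles, the flow-cell was stripped with NaOH and re-annealed. Each cycle imaged Cy3-labelled switching-strand clusters, annealed to 100 nM quencher-labelled ATP aptamer on a modified Illumina MiSeq flow-cell, first in selection buffer and then after 15 min with 500 uM ATP at 22 °C. The fluorescence ratio is summed target-cycle over summed buffer-cycle Cy3 intensity per cluster, averaged per switch-domain sequence, with clusters outside 100-1000 RFU excluded.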
# 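Also: ATP exposure 15 min at 22 °C before imaging.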
row,Sequence,switch fluorescence ratio
1,TTGGGAAGAT,0.981 ± 0.018
2,TTGGGAAGGT,0.982 ± 0.049
3,TTGGGACTGT,0.978 ± 0.054
4,TTGGGAGCGG,0.9769 ± 0.0038
5,TTGGGAGGTT,0.968 ± 0.025
6,TTGGGATAAC,1.04 ± 0.058
7,TTGGGATGCC,1.08 ± 0.17
8,TTGGGCAAGG,1.02 ± 0.026
9,TTGGGCCCGT,1.02 ± 0.075
10,TTGGGCGAGC,0.9736 ± 0.0045
11,TTGGGGAAGC,0.958 ± 0.002
12,TTGGGGAAGG,1.04 ± 0.034
13,TTGGGGAATT,1 ± 0.019
14,TTGGGGAGAG,0.991 ± 0.01
15,TTGGGGATAT,0.998 ± 0.039
16,TTGGGGATGG,1.01 ± 0.047
17,TTGGGGATTA,1.09 ± 0.18
18,TTGGGGCAAA,1.06 ± 0.061
19,TTGGGGCATA,1.43 ± 0.77
20,TTGGGGCGTT,0.993 ± 0.057
21,TTGGGGGACG,0.982 ± 0.048
22,TTGGGGGACT,1.01 ± 0.042
23,TTGGGGGCAT,1.02 ± 0.052
24,TTGGGGGCCT,1.04 ± 0.06
25,TTGGGGGCGA,1.036 ± 0.0035

row,Sequence,switch fluorescence ratio
1,TTGGGGGGAA,1.01 ± 0.025
2,TTGGGGGGGT,1 ± 0.03
3,TTGGGGGGTT,1.03 ± 0.066
4,TTGGGGGTCC,1.02 ± 0.038
5,TTGGGGTCCC,1 ± 0.037
6,TTGGGGTCCG,0.977 ± 0.053
7,TTGGGGTTAC,1.11 ± 0.16
8,TTGGGGTTCT,1.04 ± 0.033
9,TTGGGTAAGT,1.016 ± 0.0059
10,TTGGGTAGCA,0.9968 ± 0.0098
11,TTGGGTAGCT,0.996 ± 0.043
12,TTGGGTAGTG,0.993 ± 0.031
13,TTGGGTATAG,1.02 ± 0.028
14,TTGGGTATGG,0.997 ± 0.018
15,TTGGGTATGT,1.01 ± 0.038
16,TTGGGTCAAC,1.05 ± 0.014
17,TTGGGTCATA,1.01 ± 0.039
18,TTGGGTCCTT,0.993 ± 0.026
19,TTGGGTCGGA,0.992 ± 0.029
20,TTGGGTGGCG,1.04 ± 0.12
21,TTGGGTGTTG,0.997 ± 0.037
22,TTGGGTTAGC,1.03 ± 0.037
23,TTGGGTTCCT,1.04 ± 0.11
24,TTGGGTTTAT,0.999 ± 0.017
25,TTGGGTTTGG,0.986 ± 0.015

row,Sequence,switch fluorescence ratio
1,TTGGTAATCC,1.011 ± 0.0026
2,TTGGTACCGC,1 ± 0.048
3,TTGGTACGGC,0.99 ± 0.037
4,TTGGTACGGG,1.01 ± 0.047
5,TTGGTACTGC,1.03 ± 0.027
6,TTGGTAGAGT,0.965 ± 0.04
7,TTGGTATATA,0.9879 ± 0.0069
8,TTGGTATGTA,1 ± 0.018
9,TTGGTATTTG,0.993 ± 0.018
10,TTGGTCTATC,0.998 ± 0.035
11,TTGGTGAATT,0.99 ± 0.019
12,TTGGTGAGGT,0.99 ± 0.041
13,TTGGTGCATG,1.01 ± 0.04
14,TTGGTGCGTT,0.992 ± 0.018
15,TTGGTGCTGT,1.01 ± 0.017
16,TTGGTTACTT,1.01 ± 0.011
17,TTGGTTATGG,1 ± 0.039
18,TTGGTTATTT,1 ± 0.045
19,TTGGTTCAGC,1.05 ± 0.028
20,TTGGTTCCGC,1.53 ± 0.48
21,TTGGTTCTCT,1.01 ± 0.011
22,TTGGTTCTGA,1.021 ± 0.0036
23,TTGGTTGGAA,1 ± 0.072
24,TTGGTTGTAG,1.01 ± 0.02
25,TTGGTTTACG,1.02 ± 0.03

row,Sequence,switch fluorescence ratio
1,TTGGTTTCGT,1.022 ± 0.0059
2,TTGGTTTGCC,0.982 ± 0.029
3,TTGGTTTTGT,0.995 ± 0.024
4,TTGGTTTTTA,0.98 ± 0.018
5,TTGTAAAATT,0.99 ± 0.027
6,TTGTAAACTT,1.03 ± 0.012
7,TTGTAACGGA,1.01 ± 0.039
8,TTGTACTTAC,1.24 ± 0.048
9,TTGTAGATGC,1.03 ± 0.071
10,TTGTAGCCGT,0.983 ± 0.029
11,TTGTAGGAAC,0.9978 ± 0.0037
12,TTGTAGGGAG,1 ± 0.027
13,TTGTAGTATC,1 ± 0.025
14,TTGTAGTTGG,0.986 ± 0.058
15,TTGTAGTTTT,1.01 ± 0.038
16,TTGTATAAGG,1 ± 0.015
17,TTGTATCCTG,0.9637 ± 0.0011
18,TTGTATGGG,0.984 ± 0.015
19,TTGTATTAGG,0.968 ± 0.05
20,TTGTCAGTTT,1.03 ± 0.079
21,TTGTCCGGGG,1.006 ± 0.0058
22,TTGTCCGTGC,1.14 ± 0.15
23,TTGTCCTGCG,0.965 ± 0.019
24,TTGTCCTGTG,1.02 ± 0.036
25,TTGTCGTCGC,0.989 ± 0.024

row,Sequence,switch fluorescence ratio
1,TTGTCTCTTT,0.9932 ± 0.0062
2,TTGTGAAAGA,1.01 ± 0.021
3,TTGTGAATGT,0.975 ± 0.016
4,TTGTGAGGGG,0.988 ± 0.022
5,TTGTGAGTAG,1 ± 0.028
6,TTGTGAGTGT,1.01 ± 0.034
7,TTGTGATACT,1.07 ± 0.044
8,TTGTGCCCGG,0.9727 ± 0.009
9,TTGTGCCGGT,0.988 ± 0.037
10,TTGTGCGTAG,0.991 ± 0.047
11,TTGTGCTGCC,1.05 ± 0.027
12,TTGTGGAAAT,1 ± 0.069
13,TTGTGGCAGG,1.01 ± 0.054
14,TTGTGGCTGT,1.01 ± 0.023
15,TTGTGGGGCC,1 ± 0.029
16,TTGTGGGGGG,0.989 ± 0.036
17,TTGTGGGTTA,0.96 ± 0.012
18,TTGTGGTCTT,0.9762 ± 0.0075
19,TTGTGGTGGG,1.03 ± 0.069
20,TTGTGGTTTG,0.992 ± 0.034
21,TTGTGTATGG,1.02 ± 0.052
22,TTGTGTCGGG,0.998 ± 0.02
23,TTGTGTGATT,1.02 ± 0.038
24,TTGTGTGGGC,1.04 ± 0.047
25,TTGTGTGTAA,0.995 ± 0.014

row,Sequence,switch fluorescence ratio
1,TTGTGTTAGT,0.958 ± 0.01
2,TTGTGTTTAT,0.965 ± 0.015
3,TTGTGTTTTT,0.995 ± 0.023
4,TTGTTAACAG,0.997 ± 0.018
5,TTGTTAATAT,1 ± 0.035
6,TTGTTAATGT,1.06 ± 0.17
7,TTGTTAGAA,1.0004 ± 0.001
8,TTGTTAGAAA,1.002 ± 0.0058
9,TTGTTAGATC,0.984 ± 0.036
10,TTGTTAGGCC,0.995 ± 0.021
11,TTGTTAGTTT,0.983 ± 0.032
12,TTGTTATACG,1.09 ± 0.079
13,TTGTTATGTA,0.982 ± 0.026
14,TTGTTATGTT,0.971 ± 0.03
15,TTGTTATTGG,0.978 ± 0.038
16,TTGTTCAAAA,1.03 ± 0.025
17,TTGTTCCATA,1 ± 0.033
18,TTGTTGAAGG,0.998 ± 0.038
19,TTGTTGAAGT,0.9966 ± 0.0072
20,TTGTTGATTT,1.02 ± 0.034
21,TTGTTGGGAA,0.998 ± 0.032
22,TTGTTGGGGG,0.994 ± 0.027
23,TTGTTGGTAC,1.15 ± 0.23
24,TTGTTGGTCC,1.16 ± 0.25
25,TTGTTGGTGA,0.971 ± 0.033

row,Sequence,switch fluorescence ratio
1,TTGTTGGTGC,1.09 ± 0.014
2,TTGTTGGTTA,0.9925 ± 0.0028
3,TTGTTGGTTT,1.02 ± 0.05
4,TTGTTGTAGC,1.02 ± 0.015
5,TTGTTGTATG,1.02 ± 0.014
6,TTGTTGTCGG,0.956 ± 0.013
7,TTGTTGTTAC,0.9998 ± 0.0074
8,TTGTTTAACT,1.02 ± 0.026
9,TTGTTTAGGG,0.999 ± 0.049
10,TTGTTTCCCG,1.013 ± 0.0086
11,TTGTTTGGCC,1.05 ± 0.079
12,TTGTTTGGCT,1.01 ± 0.015
13,TTGTTTGGTG,0.932 ± 0.014
14,TTGTTTTAAT,0.999 ± 0.02
15,TTGTTTTACA,0.9843 ± 0.0096
16,TTGTTTTGAT,0.984 ± 0.035
17,TTGTTTTGCA,0.971 ± 0.018
18,TTGTTTTTTC,0.986 ± 0.026
19,TTTAAAAAGC,0.996 ± 0.032
20,TTTAAAAAGT,1 ± 0.023
21,TTTAAAAATA,0.9966 ± 0.0049
22,TTTAAAACGC,1.01 ± 0.099
23,TTTAAAATTC,1.28 ± 0.49
24,TTTAAACGTA,0.983 ± 0.033
25,TTTAAAGTGT,0.997 ± 0.029

row,Sequence,switch fluorescence ratio
1,TTTAAATCTT,1.06 ± 0.022
2,TTTAAATGCG,0.985 ± 0.041
3,TTTAAATGGT,1 ± 0.027
4,TTTAACCGTC,1.06 ± 0.052
5,TTTAACGAAT,1.09 ± 0.099
6,TTTAACGTTT,0.979 ± 0.0061
7,TTTAACTCTG,1 ± 0.011
8,TTTAAGACAA,0.9892 ± 0.0025
9,TTTAAGCCGG,1.01 ± 0.032
10,TTTAAGGGA,0.9897 ± 0.0045
11,TTTAAGGGCC,0.978 ± 0.036
12,TTTAAGGTGA,1.04 ± 0.053
13,TTTAAGGTTA,0.999 ± 0.025
14,TTTAAGTCAG,1.018 ± 0.0088
15,TTTAAGTTTG,0.989 ± 0.029
16,TTTAATAAAA,0.988 ± 0.013
17,TTTAATAAGT,0.9981 ± 0.0036
18,TTTAATACGA,1.04 ± 0.042
19,TTTAATACGG,1.04 ± 0.011
20,TTTAATAGTT,1.03 ± 0.022
21,TTTAATATCT,0.998 ± 0.015
22,TTTAATATGC,1.14 ± 0.23
23,TTTAATATGT,0.968 ± 0.024
24,TTTAATCAAG,0.951 ± 0.021
25,TTTAATCACC,1.02 ± 0.02

# — the supplement of paper PMC10126150
